Assays:
[1] = molecular target: receptor for App on Chang conjunctiva epithelial cells (proteinaceous, not identified) (human); assay: cell-based or functional assay
[2] = molecular target: receptor for App on Chang conjunctiva epithelial cells (proteinaceous, not identified) (human); assay: FACS binding assay on Chang cells (FIG. 35)
[3] = molecular target: human receptor for NadA on Chang conjunctiva epithelial cells (pronase-sensitive protein, not identified) (human); assay: FACS on Chang cells, MFI against protein concentration
[4] = molecular target: the molecule itself; assay: Western blot of whole cell lysates with anti-NadA serum (self-association)

**Q.** Which fluorescence shift (cells positive to adhesion), FACS adhesion of E. coli to Chang cells [1] does the source give for “App S267A expressed on the surface of E. coli (pET-AppS267A transformants)” here?
**A.** 91%

**Q.** App-His was tested. Which concentration at which binding reaches a plateau [2] did it give?
**A.** 50 µg/mL

**Q.** For “NadA (purified recombinant protein used in FACS binding to Chang cells)”, which concentration at which binding reaches a plateau [3] is on record?
**A.** 200 µg/mL

**Q.** “App expressed from the full-length gene on the surface of E. coli (pET-App transformants)” was tested. Which fluorescence shift (cells positive to adhesion), FACS adhesion of E. coli to Chang cells [1] did it give?
**A.** 90.3%

**Q.** How did the fluorescence shift, FACS adhesion of E. coli to Chang cells [1] turn out when “Appβ expressed on the surface of E. coli (pET-Appβ transformants)” was run?
**A.** 74.2%

B1: NadA allele 1 (strain MC58) (other)
chain: ATSDDDVKKAATVAIVAAYNNGQEINGFKAGETIYDIGEDGTITQKDATAADVEADDFKGLGLKKVVTNLTKTVNENKQNVDAKVKAAESEIEKLTTKLADTDAALADTDAALDETTNALNKLGENITTFAEETKTNIVKIDEKLEAVADTVDKHAEAFNDIADSLDETNTKADEAVKTANEAKQTAEETKQNVDAKVKAAETAAGKAEAAAGTANTAADKAEAVAAKVTDIKADIATNKADIAKNSARIDSLDKNVANLRKETRQGLAEQAALSGLFQPYNVGRFNVTAAVGGYKSESAVAIGTGFRFTENFAAKAGVAVGTSSGSSAAYHVGVNYEW
notes: Oligomer of about 170 kDa; also called allele 1 of 961
**Q.** Does B1 bind [4]?
**A.** binds

B2: NadA allele 2 (strain 90/18311) (other)
chain: ATNDDDVKKAATVAIAAAYNNGQEINGFKAGETIYDIDEDGTITKKDATAADVEADDFKGLGLKKVVTNLTKTVNENKQNVDAKVKAAESEIEKLTTKLADTDAALDATTNALNKLGENITTFAEETKTNIVKIDEKLEAVADTVDKHAEAFNDIADSLDETNTKADEAVKTANEAKQTAEETKQNVDAKVKAAETAAGKAEAAAGTANTAADKAEAVAAKVTDIKADIATNKDNIAKKANSADVYTREESDSKFVRIDGLNATTEKLDTRLASAEKSITEHGTRLNGLDRTVSDLRKETRQGLAEQAALSGLFQPYNVGRFNVTAAVGGYKSESAVAIGTGFRFTENFAAKAGVAVGTSSGSSAAYHVGVNYEW
notes: also called allele 2 of 961
**Q.** Does B2 bind [4]?
**A.** binds

Source: US20140294884A1 (Novartis, published 2014)
